Reference: paper PMC7641504 (International journal of mass spectrometry, 2020)

B1: yeast alcohol dehydrogenase (enzyme, UniProt P00330 1-348, looked up)
chain: MSIPETQKGVIFYESHGKLEYKDIPVPKPKANELLINVKYSGVCHTDLHAWHGDWPLPVKLPLVGGHEGAGVVVGMGENVKGWKIGDYAGIKWLNGSCMACEYCELGNESNCPHADLSGYTHDGSFQQYATADAVQAAHIPQGTDLAQVAPILCAGITVYKALKSANLMAGHWVAISGAAGGLGSLAVQYAKAMGYRVLGIDGGEGKEELFRSIGGEVFIDFTKEKDIVGAVLKATDGGAHGVINVSVSEAAIEASTRYVRANGTTVLVGMPAGAKCCSDVFNQVVKSISIVGSYVGNRADTREALDFFARGLVKSPIKVVGLSTLPEIYEKMEKGQIVGRYVVDTSK
B2: rabbit muscle pyruvate kinase (enzyme)
chain: not shown
modifications: acetylation of the N-terminal serine (after removal of the initiator methionine)

Target: the molecule itself
Experiment: native MS

Row | Protein | stoichiometry N
1 | B1 | 4
2 | B2 | 4
